This note sets out measurements from publication PMC12474881.

For assay [1], the target named is CaMKIIδ-0 F368A (human). Kind of assay: mass photometry.
Assay [2] addresses CaMKIIδ-0 F368A/L405M (human). Kind of assay: mass photometry.
For assay [3], the target named is CaMKIIδ-0 F368A/Q407A (human). Put plainly: mass photometry.
In assay [4] the target is CaMKIIα with exon 14 only as the variable linker (human).
The target in assay [5] is CaMKIIα with exon 18 only as the variable linker (human).
In assay [6] the target is CaMKIIβ with exon 14 only as the variable linker (human).
The target in assay [7] is CaMKIIδ with exon 14 only as the variable linker (human).
In assay [8] the target is CaMKIIα exon 18 with all Ser and Thr residues in exon 18 mutated to Ala (human).
Assay [9] has as its target CaMKIIα mutants with acidic exon 18 positioned proximal to the regulatory segment.
The target in assay [10] is CaMKIIα with acidic exon 14 (all basic residues of exon 14 mutated to acidic residues) (human).
The target in assay [11] is CaMKIIα with basified exon 18 (human).
Assay [12] deals with CaMKIIα with the sequence of exon 18 reversed (human).

As a reminder, the stoichiometry N is the number of molecules, sites or subunits per partner or assembly. Turning to CaMKIIδ-0 F368A (enzyme), in assay [1], the percent of the total population as dimers at 25 nM came to 20%, the percent of the total population as dimers at 100 nM worked out at 10%, the percent of the total population as tetramers at 100 nM is 5% and the stoichiometry N was 14.
On to CaMKIIδ-0 F368A/L405M (enzyme), for which, in assay [2], the percent of the population as tetradecameric holoenzyme at 100 nM was 5% and the stoichiometry N was 2.
For the substance CaMKIIδ-0 F368A/Q407A (enzyme), in assay [3], the percent of the population as tetradecameric holoenzyme at 100 nM was 5% and the stoichiometry N amounted to 2.
In the case of “Calmodulin (Gallus gallus) (from UniProt P62149 1-149) (natural protein)”, the EC50 of Ca2+/CaM for kinase activity against syntide-2 (coupled kinase assay) in [4] is 17 nM; in [5] it was 193 nM; in [6], 20 nM; in assay [7] it was 20 nM; in assay [10] it was 102 nM; in assay [11], 34 nM. In assay [12], this substance yielded an EC50 of Ca2+/CaM for kinase activity against syntide-2 (coupled kinase assay) of 41 nM. For the same substance, the EC50 of Ca2+/CaM for kinase activity (coupled kinase assay) came out at 350 nM in assay [8] and 70 nM in [9].
